Values quoted from earlier work as cited in paper PMC8961861.

Target: Drebrin 1-300 (Homo sapiens) (UniProt Q16643)
Test: NMR

Chain of UniProt Q16643 (Q16643 1-300): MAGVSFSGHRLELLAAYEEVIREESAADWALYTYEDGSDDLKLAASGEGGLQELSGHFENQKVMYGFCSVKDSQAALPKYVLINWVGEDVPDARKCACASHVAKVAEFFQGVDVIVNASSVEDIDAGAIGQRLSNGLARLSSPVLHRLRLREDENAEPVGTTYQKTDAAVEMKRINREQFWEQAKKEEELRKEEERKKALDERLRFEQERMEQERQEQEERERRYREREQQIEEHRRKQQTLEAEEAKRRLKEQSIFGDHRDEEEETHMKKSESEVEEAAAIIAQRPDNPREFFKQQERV

Kd: 300 µM
Substance: Cx43CT 236-382 (from UniProt P08050)
